We go through one substance from patent US20170355757A1.

This experiment has as its target human C5aR1 (human) (UniProt P21730). The experiment is described as follows: cell-based or functional assay.

human C5aR1 (human), sequence (P21730 whole entry): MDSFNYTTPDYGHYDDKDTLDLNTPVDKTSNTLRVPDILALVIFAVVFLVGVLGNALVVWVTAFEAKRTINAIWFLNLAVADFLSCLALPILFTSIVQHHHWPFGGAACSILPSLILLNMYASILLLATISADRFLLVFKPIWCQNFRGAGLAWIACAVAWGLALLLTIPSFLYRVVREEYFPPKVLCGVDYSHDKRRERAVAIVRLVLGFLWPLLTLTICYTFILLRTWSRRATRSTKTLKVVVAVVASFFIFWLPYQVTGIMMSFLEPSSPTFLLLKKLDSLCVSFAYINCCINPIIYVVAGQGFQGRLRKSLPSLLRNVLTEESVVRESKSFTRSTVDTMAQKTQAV

“hC5a (from UniProt P01031 678-751) (ligand)” displayed an EC50[M] hC5a, luciferase reporter in HEK293/Gα16/hC5aR1/NFAT-luc cells of 3.9e-10 M.
